Experimental data as given in doi:10.1101/2024.05.10.593077.
Values joined by “and” are separate entries in the source; they are usually repeats but may differ in a detail not shown here. Identical values can stand only once.

Assays:
Human FcγRI (WT) (human) [1] = molecular target: Human FcγRI (WT) (human) (UniProt P12314); assay: SPR
Human FcγRI (WT) (human) [2] = molecular target: Human FcγRI (WT) (human) (UniProt P12314); assay: high-speed atomic force microscopy
[3] = molecular target: Trastuzumab ΔP230 (IgG1 with deletion of Pro230 in the lower hinge) (human); assay: SEC

UniProt P12314, sequence (P12314 16-292): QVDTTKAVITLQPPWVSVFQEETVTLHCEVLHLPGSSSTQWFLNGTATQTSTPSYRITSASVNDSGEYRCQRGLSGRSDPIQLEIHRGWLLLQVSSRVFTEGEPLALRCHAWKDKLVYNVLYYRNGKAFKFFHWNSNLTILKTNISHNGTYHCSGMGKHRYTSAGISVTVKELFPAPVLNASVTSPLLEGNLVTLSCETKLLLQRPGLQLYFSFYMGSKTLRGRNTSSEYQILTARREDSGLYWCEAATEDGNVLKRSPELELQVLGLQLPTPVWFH

| Substance | Kd (Human FcγRI (WT) (human) [1]) [nM] | stoichiometry N (IgG1 WT:FcγRI) (Human FcγRI (WT) (human) [2]) | ratio monomer:dimer (monomer:dimer) [3] | stoichiometry N (ΔP230:FcγRI (mol:mol)) (Human FcγRI (WT) (human) [2]) |
| --- | --- | --- | --- | --- |
| Trastuzumab CSCS (IgG1 with the double substitution Cys226Ser and Cys229Ser) (antibody) | 0.92 | – | – | – |
| Trastuzumab WT, anti-HER2 humanized IgG1 (antibody) | 0.89 | 1 | – | – |
| Trastuzumab ΔP230 (IgG1 with deletion of Pro230 in the lower hinge) (antibody) | 23.5 | – | 6 | 1 and 2 |
